{"source": "paper PMC4608048", "target": "UbcH10^LR (as used in surface plasmon resonance) (human)", "experiment": "SPR", "data": [{"substance": "APC/C^Cdh1.Hsl1 (from UniProt Q9H1A4;Q9UJX6;P30260;Q9UJX5;Q9UJX4;Q13042;Q9UJX3;Q9UJX2;Q9UM13;Q9NYG5;Q8NHZ8;Q9BS18;P60006;Q96DE5;Q9UM11-2;P34244) (complex)", "values": [{"measurement": "K^kin d (fast)", "result": 24, "unit": "nM"}, {"measurement": "K^kin d (slow)", "result": 23, "unit": "nM"}, {"measurement": "koff (fast)", "result": 0.04, "unit": "s⁻¹"}, {"measurement": "koff (slow)", "result": 0.0046, "unit": "s⁻¹"}, {"measurement": "kon (fast)", "result": "1.7e+06", "unit": "M⁻¹ s⁻¹"}, {"measurement": "kon (slow)", "result": 170000, "unit": "M⁻¹ s⁻¹"}]}]}
